The target in this data set is TtCsm complex (Thermus thermophilus) (UniProt Q53W19+Q53WF6+Q53WF5+Q53WF4+Q53W18). The data set is described as follows: cleavage_in_vitro.

Here are results for one substance from patent US20240182988.

Substance “crRNA targeting SARS-CoV-2 N gene (N1) ; SARS-CoV-2 N1 target RNA” showed an activity of more than 95 % cleaved.
